Columns and labels:
Type in all cases: biochemical
[1] = target: T1, Human plasma thrombin (Homo sapiens, UniProt P00734); assay: Assay for thrombin inhibitory activity (Example 25); conditions: final concentration up to ×10^-5 M; enzyme 3 × 10^-9 M
T1 construct: (5) Human plasma thrombin (Kabi, Daiichi Kagaku Yakuhin); purchased Kabi (via Daiichi Kagaku Yakuhin); host or cells: human plasma
Description: F. Human plasma thrombin (Sigma)
(§1) Buffer: Buffer solution for each enzyme is as follow. Thrombin and FXa: 50 mM Tris-HCl, 7.5 mM EDTA-2Na, 175 mM NaCl (pH 8.4) […]
(§2) Substrate solution: for the enzymes F, G, H and I, the following substrate f, g, h or i, respectively, was dissolved to a final concentration shown in Table 14.
f. H.D-Phe-Pip-Arg-pNA (Kabi Vitrum)
(§3) To wells of an ELISA 96-well microtiter plate, were added a solution of (Arg^59 -Ala^107) SLPI obtained in Example 23 and then the enzyme solution, and the mixture was incubated at 37° C. for 10 minutes. Next, the substrate solution was added to develop the color, whose absorption was then measured at 405 nm. As a control, SLPI was used.

[2] = target: T2, Human plasma plasmin (Homo sapiens, UniProt P00747); assay: Assay for plasmin inhibitory activity (Example 25); conditions: final concentration up to ×10^-5 M; enzyme 1.0 × 10^-7 M
T2 construct: (6) Human plasma plasmin (Kabi, Daiichi Kagaku Yakuhin); purchased Kabi (via Daiichi Kagaku Yakuhin); host or cells: human plasma
T2 sequence (P00747 581-810 limits assumed): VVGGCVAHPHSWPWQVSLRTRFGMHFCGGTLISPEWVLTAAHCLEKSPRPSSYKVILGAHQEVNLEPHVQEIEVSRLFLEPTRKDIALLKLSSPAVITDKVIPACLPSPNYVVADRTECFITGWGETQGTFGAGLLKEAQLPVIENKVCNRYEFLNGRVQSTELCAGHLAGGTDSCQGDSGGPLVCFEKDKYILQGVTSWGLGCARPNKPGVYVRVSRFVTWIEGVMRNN
T2 sequence (P00747 97-580 partner limits assumed): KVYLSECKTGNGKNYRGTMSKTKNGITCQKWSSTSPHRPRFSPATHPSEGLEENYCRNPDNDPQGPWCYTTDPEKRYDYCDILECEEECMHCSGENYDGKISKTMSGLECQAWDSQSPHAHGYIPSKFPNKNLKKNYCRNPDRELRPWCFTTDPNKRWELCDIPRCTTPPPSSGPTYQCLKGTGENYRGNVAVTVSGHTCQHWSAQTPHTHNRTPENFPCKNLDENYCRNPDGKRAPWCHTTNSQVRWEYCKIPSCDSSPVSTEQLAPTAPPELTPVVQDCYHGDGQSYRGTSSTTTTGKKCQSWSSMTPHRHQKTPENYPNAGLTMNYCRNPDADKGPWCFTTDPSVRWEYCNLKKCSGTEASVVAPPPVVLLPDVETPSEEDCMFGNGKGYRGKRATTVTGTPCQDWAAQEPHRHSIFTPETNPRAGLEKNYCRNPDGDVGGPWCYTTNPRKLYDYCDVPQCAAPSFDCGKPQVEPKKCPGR
Description: G. Human plasma plasmin (sigma)
Plasmin: 50 mM Tris-HCl, 100 mM NaCl (pH 7.4) […]
as §2
g. H.D-Val-Leu-Lys-pNA (Kabi Vitrum)
as §3

[3] = target: T3, Bovine spleen trypsin (Bos taurus, UniProt P00760); assay: Assay for trypsin inhibitor activity (Example 24); conditions: enzyme 2 × 10^-7 M, substrate 1.0 × 10^-3 M
T3 construct: purchased Sigma
T3 sequence (P00760 24-246): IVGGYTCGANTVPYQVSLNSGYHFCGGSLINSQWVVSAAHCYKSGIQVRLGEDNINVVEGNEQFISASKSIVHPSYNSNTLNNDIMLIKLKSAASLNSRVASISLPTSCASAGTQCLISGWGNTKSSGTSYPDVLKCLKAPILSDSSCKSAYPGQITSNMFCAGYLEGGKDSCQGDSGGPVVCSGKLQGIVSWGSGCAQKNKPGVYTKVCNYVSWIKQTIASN
Description: (§4) The following assay method was used.
(§5) Buffer: 0.1M (2-hydroxyethyl)piperazine-N'-2-ethansulfonic acid (HEPES), 0.5M NaCl, pH 7.5.
(§6) Enzyme concentration: the following enzyme was dissolved in the above-mentioned buffer to a concentration 9 times that shown in Table 12.
B. Bovine spleen trypsin (Sigma)
Substrate solution: for the enzymes A, B, C, D and E, the following substrate a, b, c, d or e, respectively, was dissolved in a solution of DMSO+the above-mentioned buffer (1:9) (note, final concentration of DMSO was 10% in the buffer) to a concentration of 9 times that shown in Table 12. […]
(§7) To wells of an ELISA 96-well microtiter plate, were added 120 μl of the buffer and the 20 μl of a sample solution of (Arg^59 -Ala^107) SLPI obtained in Example 23, followed by 20 μl of the enzyme solution. The mixture was reacted at 37° C. for 10 minutes. Next, 20 μl of the substrate was added, and developed at 37° C. The developed color was measured by absorption at 405 nm.
(§8) As a control the same procedure was carried out using SLPI.

[4] = system: polymorphonuclear leucocyte elastase from human sputum; assay: Inhibitory constant (Ki) assay, elastase (Example 26); conditions: from Table 16
Description: Method for assay is as follow.
Buffer: 0.1M N-(2-hydroxyethyl)piperazine-N'-2-ethanesulfonic acid (HEPES), 1.0M NaCl, 0.1% polyethylene glycol (pH 7.5)
Enzyme solution: the following enzyme was dissolved in the above-mentioned buffer to a concentration 9 times that shown in Table 15.
(§9) A. Polymorphonuclear leucocyte elastase from human sputum (EPC Co., Funakoshi Yakuhin)
Substrate solution: for the enzymes A and B, the following substrate a or b was dissolved in a solution of DMSO+the above-mentioned buffer (1:9), or in DMSO, respectively.
(§10) a. MeO-Suc-Ala-Ala-Pro-Val-pNA (Bachem) […]
To wells of an ELISA 96-well microtiter plate, were added 120 μl of the buffer, 20 μl of a sample solution of (Arg^59 -Ala^107) SLPI obtained in Example 23, and 20 μl of the enzyme solution in this order, an the mixture was reacted at 37° C. for 1 hour. Next, 20 μl of the substrate was added to develop at 25° C. Absorption of the developed color was measured at 405 nm. As a control, SLPI was used.
On the basis of the result thus obtained, an inhibitory constant (Ki) of (Arg^59 -Ala^107) SLPI of the present invention was calculated according to the method of Henderson (Henderson, P. J. F. (1972), Biochem. J. 127, 321-333).

[5] = target: T4, Human plasma kallikrein (Homo sapiens, UniProt P03952); assay: Assay for kallikrein inhibitory activity (Example 25); conditions: final concentration up to ×10^-5 M; enzyme 1.0 × 10^-7 M
T4 construct: (7) Human plasma kallikrein (Kabi, Daiichi Kagaku Yakuhin); purchased Kabi (via Daiichi Kagaku Yakuhin); host or cells: human plasma
T4 sequence (P03952 391-638 limits assumed): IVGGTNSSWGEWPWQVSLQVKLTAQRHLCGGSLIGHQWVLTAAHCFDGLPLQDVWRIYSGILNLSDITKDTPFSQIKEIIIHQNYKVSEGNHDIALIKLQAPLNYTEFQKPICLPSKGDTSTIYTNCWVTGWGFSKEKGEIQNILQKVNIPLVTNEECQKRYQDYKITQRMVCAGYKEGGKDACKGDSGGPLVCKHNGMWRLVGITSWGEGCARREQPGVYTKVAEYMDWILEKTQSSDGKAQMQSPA
T4 sequence (P03952 20-390 partner limits assumed): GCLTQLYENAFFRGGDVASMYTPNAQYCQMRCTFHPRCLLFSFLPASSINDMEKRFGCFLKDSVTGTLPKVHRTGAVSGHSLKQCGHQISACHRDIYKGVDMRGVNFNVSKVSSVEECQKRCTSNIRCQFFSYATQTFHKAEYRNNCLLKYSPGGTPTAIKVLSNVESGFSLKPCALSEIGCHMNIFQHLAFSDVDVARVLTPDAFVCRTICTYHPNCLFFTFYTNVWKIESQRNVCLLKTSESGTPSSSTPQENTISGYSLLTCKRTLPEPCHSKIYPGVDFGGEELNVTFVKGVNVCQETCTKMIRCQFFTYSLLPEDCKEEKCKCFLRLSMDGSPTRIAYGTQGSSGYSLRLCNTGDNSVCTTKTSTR
Description: H. Human plasma kallikrein (Protogene, Funakoshi Yakuhin)
Kallikrein: 50 mM Tris-HCl, 361 mM NaCl, 0.01 mg/ml polybrene (pH 7.8) […]
as §2
h. H.D-Pro-Phe-Arg-pNA (Kabi Vitram)
as §3

[6] = system: Porcine FXa; assay: Assay for Fxa inhibitory activity (Example 25); conditions: final concentration up to ×10^-5 M; enzyme 1.0 × 10^-8 M
Description: I. Porcine FXa (Daichi Seiyaku)
as §1, §2
i. Ratio 1:1 mixture of the following compounds: [drawing 5]
as §3

[7] = target: T5, polymorphonuclear leucocyte elastase from human sputum (Homo sapiens, UniProt P08246); assay: Assay for elastase inhibitor activity (Example 24); conditions: enzyme 2 × 10^-8 M, substrate 3.0 × 10^-4 M
T5 construct: Polymorphonuclear leukocyte elastase from human sputum (EPC Co; Funakoshi Yakuhin); purchased EPC Co. (via Funakoshi Yakuhin); host or cells: human sputum
T5 sequence (P08246 30-267): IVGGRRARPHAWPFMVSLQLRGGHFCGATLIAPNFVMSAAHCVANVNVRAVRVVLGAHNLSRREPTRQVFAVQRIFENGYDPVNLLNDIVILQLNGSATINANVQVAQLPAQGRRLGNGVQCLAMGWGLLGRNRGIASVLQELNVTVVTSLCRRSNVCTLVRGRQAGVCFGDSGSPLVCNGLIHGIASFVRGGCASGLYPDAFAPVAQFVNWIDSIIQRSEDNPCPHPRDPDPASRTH
Description: as §4, §5, §6, §9
Substrate solution: for the enzymes A, B, C, D and E, the following substrate a, b, c, d or e, respectively, was dissolved in a solution of DMSO+the above-mentioned buffer (1:9) (note, final concentration of DMSO was 10% in the buffer) to a concentration of 9 times that shown in Table 12.
as §10, §7, §8

[8] = target: T6, Calf pancreatic chymotrypsin (Bos taurus, UniProt P00766); assay: Serine protease inhibitory assay, Example 12: chymotrypsin; conditions: read-out: concentration of inhibitory protein which exhibits a 50% inhibition; enzyme 10^-8 M; Suc-Ala-Ala-Pro-Phe-pNA 0.1 mM; 37° C.
T6 construct: (3) Calf pancreatic chymotrypsin (Sigma); purchased Sigma; host or cells: calf pancreas
Description: (§11) Assay of serine protease inhibitory activity of active-type (Asn^55 -Ala^107) SLPI fragment polypeptide
(§12) The active-type (Asn^55 -Ala^107) SLPI fragment polypeptide obtained by refolding by the procedure shown in Example 11 as measured to determine its inhibitory activity to various serine proteases. The assay result thereof is shown as follows.
(§13) Enzyme solution: The following enzymes were dissolved in the above-mentioned buffer solutions at a concentration ten-times higher than the concentration shown in Table 4.
(3) Calf pancreatic chymotrypsin (Sigma)
(§14) Substrate solution: For the above-mentioned enzymes (1) to (7), the following substrates (1) to (7), respectively, were dissolved in dimethyl sulfoxyde to a concentration of 10 mM to prepare stock solutions, which were then dissolved in the above-mentioned buffer solution to concentration ten-times higher than final concentrations, to prepare substrate solutions. […]
(§15) To each well of a 96-well ELISA microplate were added 140 μl of the above-mentioned buffer, 20 μl of a test solution, and 20 μl of the enzyme solution, and the mixture was stirred at 37° C. for 30 minutes. Next, 20 μl of the substrate solution was added to the well, the mixture was stirred at 37° C. for one hour to develop same, and the absorbance at 405 nm was measured.

[9] = target: T7, Calf pancreatic trypsin (Bos taurus, UniProt P00760); assay: Serine protease inhibitory assay, Example 12: trypsin; conditions: read-out: concentration of inhibitory protein which exhibits a 50% inhibition; enzyme 10^-7 M; Bz-Arg-pNA 1.0 mM; 37° C.
T7 construct: (2) Calf pancreatic trypsin (Sigma); purchased Sigma; host or cells: calf pancreas
T7 sequence (P00760 24-246): T3 sequence (P00760 24-246)
Description: as §11, §12, §13
(2) Calf pancreatic trypsin (Sigma)
as §14, §15
Moreover, an inhibitory constant Ki of the present (Asn^55 -Ala^107) SLPI was calculated on the basis of the above data by a method of Dixon, M. and Webb, E. C. (1979), Enzyme, Longman or a method of Henderson, P. J. F. (1972) Biochem. J., 127, 321-333.

[10] = target: T2, Human plasma plasmin; assay: Serine protease inhibitory assay, Example 12: plasmin; conditions: read-out: concentration of inhibitory protein which exhibits a 50% inhibition; enzyme 10^-8 M; H-D-Val-Leu-Lys-pNA 0.1 mM; 37° C.
Description: as §11, §12, §13
(6) Human plasma plasmin (Kabi, Daiichi Kagaku Yakuhin)
as §14, §15

[11] = target: T8, Porcine pancreatic elastase (Sus scrofa, UniProt P00772); assay: Serine protease inhibitory assay, Example 12: porcine elastase; conditions: read-out: concentration of inhibitory protein which exhibits a 50% inhibition; enzyme 6 × 10^-9 M; Suc-Ala-Ala-Ala-pNA 0.1 mM; 37° C.
T8 construct: (4) Porcine pancreatic elastase (Sigma); purchased Sigma; host or cells: porcine pancreas
T8 sequence (P00772 27-266): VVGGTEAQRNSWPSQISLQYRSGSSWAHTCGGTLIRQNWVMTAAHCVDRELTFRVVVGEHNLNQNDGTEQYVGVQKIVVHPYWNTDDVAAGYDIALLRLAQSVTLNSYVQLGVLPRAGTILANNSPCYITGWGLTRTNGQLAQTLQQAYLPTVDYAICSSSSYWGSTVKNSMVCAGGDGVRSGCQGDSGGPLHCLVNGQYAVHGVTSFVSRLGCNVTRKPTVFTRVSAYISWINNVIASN
Description: as §11, §12, §13
(4) Porcine pancreatic elastase (Sigma)
as §14, §15

[12] = target: T4, Human plasma kallikrein; assay: Serine protease inhibitory assay, Example 12: kallikrein; conditions: read-out: concentration of inhibitory protein which exhibits a 50% inhibition; enzyme 10^-8 M; H-D-Pro-Phe-Arg-pNA 0.1 mM; 37° C.
Description: as §11, §12, §13
(7) Human plasma kallikrein (Kabi, Daiichi Kagaku Yakuhin)
as §14, §15

[13] = target: T9, polymorphonuclear leukocyte elastase from human sputum (Homo sapiens, UniProt P08246); assay: Serine protease inhibitory assay, Example 12: human elastase; conditions: read-out: concentration of inhibitory protein which exhibits a 50% inhibition; enzyme 10^-9 M; MeO-Suc-Ala-Ala-Pro-Val-pNA 0.3 mM; 37° C.
T9 construct: Polymorphonuclear leukocyte elastase from human sputum (EPC Co; Funakoshi Yakuhin); purchased EPC Co. (via Funakoshi Yakuhin); host or cells: human sputum
T9 sequence (P08246 30-267): T5 sequence (P08246 30-267)
Description: as §15

[14] = target: T1, Human plasma thrombin; assay: Serine protease inhibitory assay, Example 12: thrombin; conditions: read-out: concentration of inhibitory protein which exhibits a 50% inhibition; enzyme 10^-11 M; H-D-Phe-Pip-Arg-pNA 0.1 mM; 37° C.
Description: as §11, §12, §13
(5) Human plasma thrombin (Kabi, Daiichi Kagaku Yakuhin)
as §14, §15

(Arg^59 -Ala^107) SLPI: polypeptide having an amino acid sequence starting with the 59th Arg and ending at the 107th Ala of SLPI (RKPGKCPVTYGQCLMLNPPNFCEMDGQCKRDLKCCMGMCGKSCVSPVKA)
inhibitory activity to thrombin [1]: did not exhibit inhibitory activity
inhibitory activity to plasmin [2]: did not exhibit inhibitory activity
IC50 [3]: 2000 nM
relative ratio of inhibitory activity on trypsin to that on elastase (Ki(T)/Ki(E)) [4]: about 14,000
inhibitory activity to kallikrein [5]: did not exhibit inhibitory activity
inhibitory activity to FXa [6]: did not exhibit inhibitory activity
IC50 [7]: 12 nM

Aprotinin
IC50 [8]: 50 nM
IC50 [9]: 100 nM
IC50 [10]: 5 nM
IC50 [11]: > 2000 nM
IC50 [12]: 70 nM
IC50 [13]: 300 nM
IC50 [14]: > 2000 nM

α1 -PI: α1 -AT (Sigma), inhibitory protein used as a positive control
IC50 [8]: 2000 nM
IC50 [9]: 200 nM
IC50 [10]: > 2000 nM
IC50 [11]: 300 nM
IC50 [12]: > 2000 nM
IC50 [14]: > 2000 nM
